# Measured values as given in patent US20090062512A1, “Comparative ligand mapping from MHC class I positive cells” (priority 2000, published 2009).
# Target: A*0201 class I MHC molecules in cells infected with the West Nile virus (Homo sapiens, UniProt P04439, D140Y/D185E/D98H/E176V/E277Q/G131W/G231S/I119V/I121R/I166T/I218V/L300P/L318F/N151K/N90K/P208A/P217A/Q86G/Q94H/R138H/R169H/T345S)
# Experiment: not given
# Assay type: cell-based
# Details: not given
row,Substance,Fold Increase
1,ATWAENIQV,Unique
2,FLKEPALNEA,Unique
3,KIVVVTAGV,Unique
4,LDQSVTHL,Unique
5,LLDVPTAA,Unique
6,NLMHISYE,Unique
7,RLDDDGNFQL,Unique
8,SLFGQRIEN,Unique
9,SVGGVFTSV,Unique
10,VLDELKVA,Unique
11,YTMDGEYRL,Unique

# Target: sHLA-A*0201 from MCF-7, MDA-MB-231, BT-20 and MCF10A (Homo sapiens, UniProt P04439, D140Y/D185E/D98H/E176V/E277Q/G131W/G231S/I119V/I121R/I166T/I218V/L300P/L318F/N151K/N90K/P208A/P217A/Q86G/Q94H/R138H/R169H/T345S)
# Experiment: MS comparative analysis of sHLA-A*0201 peptides, breast cancer cell lines vs nontumorigenic MCF10A
# Assay type: cell-based
# Details: MCF-7, MDA-MB-231, BT-20 vs MCF10A
row,Substance,presentation by HLA A*0201 of tumorigenic vs nontumorigenic cell lines
1,GLIEKNIEL (listed as Homo sapiens),shared by all 4 cell lines
2,LLQEVEHQL (listed as Homo sapiens),found only in the MCF-7 peptide pool

# Same assay, conditions: peptide epitope presented on sHLA-A*0201; BT-20 vs nontumorigenic MCF10A
row,Substance,FOLD INCREASE BT-20 over MCF10A
1,AQYEHDLEVA,8
2,KILDLETQL,7
3,SLFGGSVKL,1.3
4,SLFPGKLEV,2
5,SLLEKSLGL (listed as Homo sapiens),None
6,TLYEAVREV,7.9

# Same assay, conditions: peptide epitope presented on sHLA-A*0201; MCF-7 vs nontumorigenic MCF10A
row,Substance,FOLD INCREASE MCF-7 over MCF10A
1,AQYEHDLEVA,34
2,KILDLETQL,9
3,SLFGGSVKL,5
4,SLFPGKLEV,5
5,SLLEKSLGL (listed as Homo sapiens),7.9
6,TLYEAVREV,None

# Same assay, conditions: peptide epitope presented on sHLA-A*0201; MDA-MB-231 vs nontumorigenic MCF10A
row,Substance,FOLD INCREASE MDA-MB-231 over MCF10A
1,AQYEHDLEVA,2
2,KILDLETQL,1.4
3,SLFGGSVKL,2.6
4,SLFPGKLEV,2.2
5,SLLEKSLGL (listed as Homo sapiens),7.4
6,TLYEAVREV,2.3

# Target: A*0201 class I MHC molecules in cells infected with the PR8 strain of influenza A virus (Homo sapiens, UniProt P04439, D140Y/D185E/D98H/E176V/E277Q/G131W/G231S/I119V/I121R/I166T/I218V/L300P/L318F/N151K/N90K/P208A/P217A/Q86G/Q94H/R138H/R169H/T345S)
# Experiment: not given
# Assay type: cell-based
# Details: not given
row,Substance,Fold Increase
1,GLIEKNIEL (listed as Homo sapiens),1.58
2,SLLEKSLGL (listed as Homo sapiens),1.64

# Target: B*0702 class I MHC molecules in cells infected with the PR8 strain of influenza A virus (Homo sapiens, UniProt P01889)
# Experiment: not given
# Assay type: cell-based
# Details: not given
row,Substance,Fold Increase
1,NLGSPRPL,5.6
2,NLPLSNLAI,4.3
3,NPASKVIAL,1.64
4,PKFEVIEKPQA,3.6
5,RIVPRFSEL,1.54
6,RPAGKGSITI,1.8
7,RPGLKNNL,1.5
8,RPKANSA,1.8
9,RPPPIGAEV,2.9
10,RPQGGQDIL,2.24
11,RPSGKGIVEF,13.7
12,RPTGGVGAV,2.7
13,RVEPLRNEL,1.95
14,SPAKIHVF,2.8
15,SPGIPNPGAPL,1.84
16,SPGPPTRKL,1.9
17,SPKIRRL,1.63
18,SPPSKPTVL,1.9
19,SPQEDKEVI,4.19
20,SPRSGLIRV,1.53
21,SPVPSRPL,2.91
22,TPEQIFQN,1.51
23,TQFVRFDSD,1.64
24,VFLKPWI,1.62
25,YPFKPPKVAF,3.27
26,YPKRPLLGL,1.61
27,YQFTGIKKY,2.3
